Here are results for one molecule from US20190367619A1 (ARGENX, published 2019).

The target in assay [1] is T1, TEV-cleaved wild-type recombinant human galectin-10 (soluble, in Fab complexes, or as recombinant galectin-10 … (human, UniProt Q05315 1-142)).
T1 sequence: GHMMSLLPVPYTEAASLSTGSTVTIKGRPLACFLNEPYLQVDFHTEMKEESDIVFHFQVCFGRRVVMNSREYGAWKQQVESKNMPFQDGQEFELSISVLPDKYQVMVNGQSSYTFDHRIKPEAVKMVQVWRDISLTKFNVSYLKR
The assay is described as follows: cell-based or functional assay.

For assay [2], the target named is T2, human galectin-10-His (recombinant human galectin-10 with TEV-cleavable N-terminal His-tag) (human).
T2 construct: SEC-MALLS: dimer in solution; also called Gal10-His; humanGal10-His
T2 chain: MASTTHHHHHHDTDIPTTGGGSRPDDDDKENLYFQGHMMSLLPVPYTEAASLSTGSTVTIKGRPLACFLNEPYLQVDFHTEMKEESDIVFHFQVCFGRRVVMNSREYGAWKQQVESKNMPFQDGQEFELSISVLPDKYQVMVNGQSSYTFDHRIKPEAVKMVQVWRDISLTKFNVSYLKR
The assay is described as follows: BLI tandem on galectin-10-His; competitor: saturating 6A05 mIgG1 (10 ug/mL). In a few lines:
(§1)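 Anti-His-captured galectin-10-His on BLI sensor tips was first loaded with an excess of the saturating antibody, then moved directly into the competitor antibody at a suboptimal concentration. Competitor binding was read as nm shift; no signal indicates a shared binding site.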

The target of assay [3] is T2, human galectin-10-His (recombinant …). The assay is described as follows: BLI tandem on galectin-10-His; competitor: saturating 4E08 mIgG1 (10 ug/mL). In a few lines:
as §1

Assay [4] has as its target T3, cynomolgus galectin-10-His, WGS isoform (cynomolgus).
T3 construct: not shown: His tag
T3 chain: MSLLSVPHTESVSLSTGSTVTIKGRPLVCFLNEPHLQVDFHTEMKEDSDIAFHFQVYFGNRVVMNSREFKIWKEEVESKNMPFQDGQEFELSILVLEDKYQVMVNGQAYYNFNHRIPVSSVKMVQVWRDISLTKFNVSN
The assay is described as follows: ELISA, mouse IgG1 on coated cynoGal10-His_WGS (0.5 ug/mL). The protocol:
In a similar setup to that used during the characterization of the scFv-human Fc molecules, the relative binding properties of the 7 mouse IgG1 antibodies were analyzed by ELISA. A Maxisorp plate was coated overnight with 0.5 μg/mL of human or cynomolgus WGS or YRT isoform of galectin-10-His. Then a serial dilution of each clone (from 100 nM, dilution 1/4, 12 points of dilutions) was incubated on coated galectin-10. After several washing steps, detection of the bound mouse IgG1 was carried out with an anti-mouse Fc-HRP antibody (DAMPO, Jackson ImmunoResearch, Catalog 715-035-150). Absorbance was measured at 450 nm (reference at 620 nm) with Tecan instrument. The raw data (OD values) were plotted on GraphPad Prism 7.01. The EC50 values for each antibody, calculated with a non-linear regression (log(agonist) vs. response Variable slope (four parameters)), are shown in the table below. Antibody 1D11 from the previous panel was included for comparison.

For assay [5], the target named is T2, human galectin-10-His (recombinant …). The assay is described as follows: BLI tandem on galectin-10-His; competitor: saturating 6E10 mIgG1 (10 ug/mL). The method, boiled down: as §1
Assay [6] has the same target. The assay is described as follows: BLI tandem on galectin-10-His; competitor: saturating 1C09 mIgG1 (10 ug/mL). In a few lines:
as §1

The target in assay [7] is T1, TEV-cleaved wild-type recombinant human …. The assay is described as follows: cell-based or functional assay. This is another data set of the same source.
Assay [8] deals with T2, human galectin-10-His (recombinant …). The assay is described as follows: BLI tandem on galectin-10-His; competitor: saturating 2C07 mIgG1 (10 ug/mL). The method, boiled down:
as §1

Assay [9] shares this target. The assay is described as follows: SPR Biacore T3000, mouse IgG1 captured by anti-mouse Fc, galectin-10-His as analyte. The method, boiled down: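 Polyclonal anti-mouse Fc on a CM5 chip (8000 RU) captured each mouse IgG1 (1.5 μg/mL) to around 150 RU. Galectin-10-His was then injected as a 1:2 serial dilution from 5 μg/mL in HBS-EP pH7.4. After blank subtraction, kd/KD and Rmax came from a simultaneous ka/kd fit with mass transfer and local Rmax.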

The target is the same in assay [10]. The assay is described as follows: BLI tandem on galectin-10-His; competitor: saturating 6B06 mIgG1 (10 ug/mL). In a few lines:
as §1

For assay [11] the target is unchanged. The assay is described as follows: BLI tandem on galectin-10-His; isotype control as saturating antibody (10 ug/mL). The method, boiled down:
as §1

The target is the same in assay [12]. The assay is described as follows: BLI tandem on galectin-10-His; competitor: saturating 6A08 mIgG1 (10 ug/mL). In a few lines:
as §1

Where only a bound is given, the exact number is not on record here.

B1: 1D11 mouse IgG1 (antibody, V domains shown)
VH: QVQLVESGGGLVQPGGSLRLSCAASGFTFDDYAMSWVRQAPGKGLEWVSGISWNGGSTYYAESMKGRFTISRDNAKNTLYLQMNSLKSEDTAVYYCAKDRNLGYRLGYPYDYWGQGTQVTVSS
VL: QSVLTQPPSVSGSPGETVTISCAGTSSDVGYGNYVSWYQQLPGMAPRLLIYEVNKRASGITDRFSGSKSGNTASLTISGLQSEDEGDYYCASYRSSNNAVFGGGTHLTVL
notes: VH on mouse IgG1 heavy chain constant domains (CH1-CH2-CH3), VL on mouse lambda light chain constant domain; also called 1D011; 1D11 mIgG1
Turning to B1, the “100% Inhibition of CLC formation (Conc uM)” value in [1] stood at 0.34 µM. Besides, the “100% Solubilization of CLC (Conc uM)” value in [1] was 7.86 µM. Besides, the “binding signal (nm)” value is 0.06 nm in assay [2]; 0 nm in [3]; -0.01 nm in [5]; 0.01 nm in [6]; 0.02 nm in assay [8]; 0 nm in [10]. In addition, the “binding signal (nm)” value in [11] was found to be 1.18 nm; in assay [12], 0.01 nm. Also, the binding result in assay [4] is recorded as “no binding”. Also, in [7], the “dissolution of in vitro grown Gal10 crystals (spinning disk confocal microscopy)” value is no more than 90 min. Besides, in assay [9], the Kd is 1 nM. Also, in [9], the koff turned out to be 0.00529 s⁻¹.
